Biological target: dBSM (bovine)
Experiment: ELISA

Binder	EC50
2F3#633 (antibody, V domains shown) VH: EVQLLESGGGLVQPGGSLRLSCAASGFTFDSYAMSWVRQAPGKGLEWVSAISGSGASTYYADSVKGRFSISRDNSKNTLYLQMNSLRAEDTAVYYCAIRREYSGYTPFDYWGQGTLVTVSS VL: DIVMTQTPSSLSASVGDRVTITCRASQGISSWLAWYQQKPEKAPRSLIYAASSLQSGVPSRFSGSGSGTDFTLTISSLQPEDFATYYCQQYISYPYTFGQGTKLEIK	0.00872 µM
2F3#6 (antibody, V domains shown) VH: QVQLLESGGGLVQPGGSLRLSCAASGFTFDSYAMSWVRQAPGKGLEWVSAISGSGASTYYADSVKGRFSISRDNSKNTLYLQMNSLRAEDTAVYYCAIRREYSGYAPFDYWGQGTLVIVSS VL: DIVMTQTPSSLSASVGDRVTITCRASQGISSWLAWYQQKPEKAPRSLIYAASSLQSGVPSRFSGSGSGTDFTLTISSLQPEDFATYYCQQYISYPYTFGQGTKLEIK	0.0244 µM
2F3#1733 (antibody, V domains shown) VH: QITLRESGGGLVQPGGSLRLSCAASGFTFDSYAMSWVRQAPGKGLEWVSAISGSGHSTYYADSVKGRFSISRDNSKNTLYLQMNNLRAEDTAVYYCAIRREYSGYTPFDYWGQGTLVTVSS VL: DIVMTQTPSSLSASVGDRVTITCRASQGISSWLAWYQQKPEKAPRSLIYAASSLQSGVPSRFSGSGSGTDFTLTISSLQPEDFATYYCQQYISYPYTFGQGTKLEIK	0.0136 µM
